Test [1] addresses T1, human TNFR2 on the surface of CHO-TNFR2 cells (human, UniProt P20333 23-461).
T1 construct: whole, on cells
T1 sequence (looked up): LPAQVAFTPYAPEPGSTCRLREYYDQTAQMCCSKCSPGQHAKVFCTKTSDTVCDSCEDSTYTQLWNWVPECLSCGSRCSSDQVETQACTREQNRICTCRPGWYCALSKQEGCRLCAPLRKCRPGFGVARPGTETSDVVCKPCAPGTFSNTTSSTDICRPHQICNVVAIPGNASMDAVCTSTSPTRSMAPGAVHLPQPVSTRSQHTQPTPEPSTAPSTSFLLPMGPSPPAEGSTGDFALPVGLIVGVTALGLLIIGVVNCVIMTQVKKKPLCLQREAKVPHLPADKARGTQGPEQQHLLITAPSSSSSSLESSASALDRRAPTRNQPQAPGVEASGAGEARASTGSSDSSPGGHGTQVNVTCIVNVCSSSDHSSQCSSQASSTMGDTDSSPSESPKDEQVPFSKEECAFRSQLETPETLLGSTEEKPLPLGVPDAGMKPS
In words: flow cytometry competition: antibody titrated on CHO-TNFR2 cells, then human TNFα-biotin, detection with PE-streptavidin [panel B]. As to the method: (§1) CHO stable cells highly expressing human TNFR2 were used for the experiment (the same as CHO-TNFR2 in Example 4). The CHO-TNFR2 cells were digested, washed twice with DPBS, then stained with Live/Dead (L/D) (20 minutes at room temperature), and plated at a density of 1×10⁵ cells/50 μl/well. A test anti-TNFR2 antibody was diluted to 6 μg/ml with a staining buffer as the starting concentration: the antibody was subjected to 3.33-fold gradient dilution, with a total of 7 concentration points. The diluted antibody was added to the plated cells at 50 μl/well, and the mixture was mixed well by gentle pipetting, and incubated at 4° C. for 30 minutes. Then the diluted 100 ng/ml of human TNFα-biotin was added at 100 μl/well, and the mixture was mixed well by gentle pipetting, and then incubated at 4° C. for 30 minutes. The mixture was washed twice with a staining buffer, and then 0.12 μg/ml PE-streptavidin (BioLegend, Cat #405204) was added at 100 μl/well; the resulting mixture was incubated at 4° C. for 30 minutes. The mixture was washed twice with a staining buffer, and then 150 μl of staining buffer was added to resuspend the cells; signals were detected by a flow cytometer (Thermo Attune NxT). […]

For test [2], the target named is T1, human TNFR2 on the surface of CHO-TNFR2 …. In words: flow cytometry competition: antibody titrated on CHO-TNFR2 cells, then human TNFα-biotin, detection with PE-streptavidin [panel C]. The protocol:
as §1

For test [3], the target named is T2, Cynomolgus TNFR2-His (Sino 90102-C08H) (cynomolgus monkey, UniProt A0A2K5VET2 132-366).
T2 construct: Bought protein; also called cynomolgus monkey TNFR2; recombinant cynomolgus monkey TNFR2 protein; not shown: His tag
T2 sequence: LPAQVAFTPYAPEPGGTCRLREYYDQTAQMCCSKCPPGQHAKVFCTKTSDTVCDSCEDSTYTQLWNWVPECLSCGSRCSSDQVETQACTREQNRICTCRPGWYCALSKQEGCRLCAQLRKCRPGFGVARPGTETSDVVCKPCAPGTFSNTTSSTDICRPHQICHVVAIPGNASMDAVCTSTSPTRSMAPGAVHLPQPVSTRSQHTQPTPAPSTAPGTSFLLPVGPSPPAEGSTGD
The test can be described thus: ELISA, plate coated with Cynomolgus TNFR2-His, detection with anti-human IgG Fc-HRP [panel C]. As to the method:
The test humanized antibody against TNFR2 (as described in Example 1, the antibody was comprised of variable regions linked to IgG-Fc; the WT chimeric antibody also adopted the IgG-Fc structure) was subjected to 3.33-fold gradient dilution, loaded with 100 μl/well, and incubated with shaking at room temperature for 1.5 hours. The plate was washed, and then a working solution of murine anti-human IgG Fc-HRP (diluted at 1:10000) was added, loaded with 100 μl/well, and incubated with shaking at room temperature for 1.0 hour. The plate was washed again, and then the substrate TMB of HRP was added to develop colour. A stop solution was added to stop the reaction, and then a microplate reader (MD 13) was used to read the absorbance value. The binding curve of an antibody was drawn with antibody concentration as the abscissa and corresponding OD value as the ordinate, and fitted with four parameters (GraphPad Prism9) to calculate the EC50 value. The smaller the EC50 value, the stronger the binding ability of an antibody to human/cynomolgus monkey TNFR2. The binding effect of a humanized antibody was normalized to its corresponding human-murine chimeric antibody WT (see SEQ ID NOs: 38-43 for the sequence). The higher the percentage value, the better the binding effect of the humanized antibody. […]

In test [4] the target is T1, human TNFR2 on the surface of CHO-TNFR2 …. In words: flow cytometry competition: antibody titrated on CHO-TNFR2 cells, then human TNFα-biotin, detection with PE-streptavidin [panel A]. As to the method: as §1

B1: 219-WT (antibody, V domains shown)
VH: EVQLQESGAELVRPGASVKLSCKASGYSFTNYWMNWVKQRPGQGLEWIGMIHPSDTETRLNQNFKDKATLTVDKSSSTSYMQLSSPTSEDSAVYYCARGEGLGAARSVSMDYWGQGTTVTVSS
VL: DILMTQSPSSLSASLGDRVTISCRASQDISNYLNWYQQKPDGTVKVLIYYTAILHSGVPSRFSGSGSGTDYSLTISNLEQEDIATYFCQQGNTLPWTFGGGTKLEIK
notes: Human-murine chimeric wild-type molecule
Consider B1, for which, in test [1], the “IC50 (read off the curve)” value was about 0.05 µg/mL.

B2: 224-WT (antibody, V domains shown)
VH: EVQLQESGPEIVKPGASVKLSCTASGFNNKDIYMHWVKQRPEQGLEWIGRIDPATGNTKHDPKFQDKATLSSDTSSNTAYLQFSSLTSEDTAVYYCAHSPYGDFGAMDYWGQGTTVTVSS
VL: DIQMTQSPAIMSASLGERVTMTCTASSSVSSNYLHWYQQKPGSSPKLWIYSTSNLPSGVPARFSGSGSGTSYSLTISSMEAEDAATYYCHQYHRSPWTFGGGTKLEIK
notes: Human-murine chimeric wild-type molecule; also called human-murine chimeric antibody WT of #224
Regarding B2, the “IC50 (read off the curve)” value in test [2] was about 0.05 µg/mL. The “EC50 (read off the curve)” value in test [3] is about 0.01 µg/mL.

B3: 001-WT (antibody, V domains shown)
VH: EVQLQESGGGLVQPGGSLNLSCAASGFAFSTYDLSWVRQTPEKRLEWVAYINNGGISTYYSDTVKGRFTISRDNAKNTLYLQMSSLKSEDTAMYYCVRGPFYGSANYFDYWGQGTTVTVSS
VL: EIVMTQSPASLSLSVGETVTITCRTSESIYSNLPWYQQKQGKSPQLLVYDATKLAEGVPSRFSGSESGTQYSLKINSLQSEDFGTYYCQHFWVTPWTFGGGTKLEIK
notes: Human-murine chimeric wild-type molecule; also called human-murine chimeric antibody WT of #001
With B3, the “IC50 (read off the curve)” value in test [4] is about 0.09 µg/mL.
